Assay results from US20200339681A1 (ORUM THERAPEUTICS, published 2020).
Changes are numbered by the printed parent chain. In names and notes the source's numbering stands.

Columns and labels:
[1] = molecular target: T1, integrin αvβ5 on human colorectal cancer cell lines SW480 and LoVo (human, UniProt P06756 31-1048; P18084 24-799); assay: flow cytometry, 500 nM antibody, Alexa488 anti-human Fc
T1 construct: whole, on cells; also called integrin ανβ5

[2] = molecular target: T2, integrin αvβ3 on integrin αvβ3-expressing K562 cells (UniProt P06756 31-1048; P05106 27-788, limits assumed); assay: as above
T2 construct: whole, on cells; also called integrin ανβ3

[3] = molecular target: T3, EpCAM (epithelial cell adhesion molecule) on human colorectal cancer cell lines SW480 and LoVo (human, UniProt P16422 24-314); assay: as above
T3 construct: whole, on cells; also called cell-surface EpCAM
T3 sequence (looked up): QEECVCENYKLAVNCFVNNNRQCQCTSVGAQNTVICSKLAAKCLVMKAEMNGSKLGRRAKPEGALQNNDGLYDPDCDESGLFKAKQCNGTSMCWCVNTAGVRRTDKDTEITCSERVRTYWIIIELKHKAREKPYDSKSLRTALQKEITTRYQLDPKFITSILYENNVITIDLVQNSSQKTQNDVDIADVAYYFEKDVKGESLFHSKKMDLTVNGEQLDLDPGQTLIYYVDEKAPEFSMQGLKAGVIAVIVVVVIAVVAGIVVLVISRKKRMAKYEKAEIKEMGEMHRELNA

[4] = molecular target: T3, EpCAM (epithelial cell adhesion …); assay: flow cytometry on LoVo cells, 100 nM antibody, Alexa488 anti-human Fc
[5] = molecular target: T4, human neonatal Fc receptor (hFcRn) (human, UniProt P55899 24-297; P61769 21-119, limits assumed); assay: SPR (Biacore 2000), FcRn immobilised, pH 6.0, antibody 2000-62.5 nM; pH 6.0
T4 construct: Immobilised on the CM5 chip, pH 6.0

[6] = molecular target: T4, human neonatal Fc receptor (hFcRn); assay: SPR (Biacore 2000), FcRn immobilised, pH 6.0, antibody 200-6.25 nM
[7] = molecular target: T4, human neonatal Fc receptor (hFcRn); assay: SPR (Biacore 2000), FcRn immobilised, pH 6.0, antibody 2000-62.5 nM

B1: RT22-i38 MG (antibody, IgG1, V domains shown)
VH: EVQLVESGGGLVQPGGSLRLSCAASGFTFSDFSMSWVRQAPGKGLEWVSYISRTSHTTYYADSVKGRFTISRDNSKNTLYLQMNSLRAEDTAVYYCARGFKMDYWGQGTLVTVSS
VL: DLVMTQSPSSLSASVGDRVTITCKSSQSLLNSRTGKTYLAWYQQKPGKAPKLLIYWASTRESGVPSRFSGSGSGTDFTLTISSLQPEDFATYFCQQYWYWMYTFGQGTKVEIKR
notes: Intact IgG1,κ
binding result [1]: binds
binding result [2]: binds

B2: RT22-i39 MG (antibody, IgG1, V domains shown)
VH: B1 VH
VL: DGARYCRGDCFDGMGSSSNDLVMTQSPSSLSASVGDRVTITCKSSQSLLNSRDGKNYLAWYQQKPGKAPKLLIYWASTRESGVPSRFSGSGSGTDFTLTISSLQPEDFATYFCQQYWYWMYTFGQGTKVEIKR
notes: Intact IgG1,κ
binding result [1]: binds
binding result [2]: binds

B3: RT22-ep58 MG (antibody, IgG1, V domains shown)
VH: B1 VH
VL: B1 VL with L2I, V3Q
notes: Intact IgG1,κ
binding result [3]: binds

B4: RT22-ep59 MG (antibody, human IgG1)
heavy: not shown
VL: EHLHCLGSLCWPMGSSSNDIQMTQSPSSLSASVGDRVTITCKSSQSLLNSRDGKNYLAWYQQKPGKAPKLLIYWASTRESGVPSRFSGSGSGTDFTLTISSLQPEDFATYFCQQYWYWMYTFGQGTKVEIKR
notes: also called epRas03 MG
binding result [3]: binds

B5: epRas23 MG (antibody, human IgG1)
heavy: not shown
VL: B4 VL
binding result [4]: binds

B6: epRas13 (RT22 VH, IgG1 N434D, hT4-ep59 GSSG light chain) (antibody)
heavy: not shown
VL: EHLHCLGSLCWPGSSGDIQMTQSPSSLSASVGDRVTITCKSSQSLLNSRDGKNYLAWYQQKPGKAPKLLIYWASTRESGVPSRFSGSGSGTDFTLTISSLQPEDFATYFCQQYWYWMYTFGQGTKVEIKR
Kd [5]: 2.7 µM

B7: epRas03 (RT22 VH, IgG1, hT4-ep59 GSSG light chain) (antibody)
heavy: not shown
VL: B6 VL
notes: Differs from epRas03 MG by the linker of the light chain
Kd [6]: 0.148 µM

B8: epRas83 (RT22 VH, IgG1 LALA-PG, N434D, hT4-ep59 GSSG light chain) (antibody)
heavy: not shown
VL: B6 VL
Kd [7]: 3.57 µM
